Publication PMC8492665, “An apple (Malus domestica) AP2/ERF transcription factor modulates carotenoid accumulation”

Molecular target: MdAP2-34 (Malus domestica, UniProt A0A678SKA5 1-366)
Assay: EMSA; LightShift Chemiluminescent EMSA Kit (Thermo Fisher); buffer, salt, pH and temperature not stated
Conditions: protein: recombinant; tags: GST (pGEX-4T-1, N-terminal); label: 5' biotin; blunt

MdAP2-34, sequence (A0A678SKA5 entry or part of it): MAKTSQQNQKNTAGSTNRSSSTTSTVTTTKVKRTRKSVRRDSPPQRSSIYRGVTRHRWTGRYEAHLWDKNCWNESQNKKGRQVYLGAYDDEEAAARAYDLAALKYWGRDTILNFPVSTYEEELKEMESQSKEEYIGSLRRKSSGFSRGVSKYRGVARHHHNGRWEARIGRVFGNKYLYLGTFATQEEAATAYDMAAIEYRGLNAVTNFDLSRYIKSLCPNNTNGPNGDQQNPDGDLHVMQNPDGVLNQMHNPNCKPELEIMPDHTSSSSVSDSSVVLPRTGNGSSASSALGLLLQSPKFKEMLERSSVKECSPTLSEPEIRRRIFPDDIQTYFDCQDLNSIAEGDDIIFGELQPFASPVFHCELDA

B1: MdPSY2-1 promoter hot probe (dsDNA)
DNA 1: CTTTTCTTCTCTCAGTACATGCACCGACGTCGATATTAACCTTGGAACCT
DNA 2: AGGTTCCAAGGTTAATATCGACGTCGGTGCATGTACTGAGAGAAGAAAAG
binding result: binds
